Bounds are passed on as bounds.

A short description of the data set: soluble fraction after stress (log2 fold change); higher = more stays soluble; pooled small domains, quantitative proteomics. To be noted: stress: pH 4. The essentials: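 Values are on a log2 scale, where higher means more of the domain stayed soluble after pH 4 stress. They are fold changes in the soluble amount of each domain from pooled custom libraries, measured by high-throughput quantitative proteomics. The fold change is taken to reflect aggregation propensity.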
Regarding “HMKPEQIELTFSGTTAMRLDKFLAENQPGLSRAKLQAIISSGSVEVNGKVITKQAFKLDPGDLVKALIPE”, the “soluble fraction (log2)” value is ≥ 0.43.
Next, “HMKPGWEDIFRMNQIQLEDAVRTVNRDDTLAPTKKAYLIQNLLASRWIVGNQLQAQKDKTTE”: -0.335.
Next, “HMKPGYVIQVNGTVTKIQSGLVYVKTPAAQYTLMRKYAPADAAVGDRVSLWINEEGMVIDVHGK”: -0.671.
With “HMKPKDILLPNFTNLTLDEAKAKAEEVKLNLNVSEEKYDVQIEEGKIISQDPKYQPNYTVKEGSTVNVVVS”, the “soluble fraction (log2)” value was 0.0508.
In the case of “HMKPLIIPLELMQRLSSDKQLEAGFNRFSKSKQHEFAAYIAAAKRVETKVKRLEKIIPLILSGEGLNDR”, the “soluble fraction (log2)” value stood at 0.333.
Next, “HMKPLRPVHLEIQTHRLSPVGILRSSFRQAGKVMHSNHGRITGLNLEQLKLIQAAFAGEALPK”: 0.0473; “HMKPQIRRHEKITALVREHGFMSVEQLARELEVTPQTIRRDIGILSAENVLRRYHGGAALGD”: 0.148; “HMKPSNLTSDERTQLLAQLKTAMGSDQYNQLRRQVGEEKLLEYVLDNVPGIQEEILGNRAVQENIDLH”: -0.266.
Next, “HMKPSTVSVPDVSGDKLSTAKMIIRKSGLKVGDVQKIEDDNVGAGKVVRTNPSAGSKKREGSSVDIFVASA”: 0.111.
Consider “HMKPTVKGHFTRKESNVGGYADVRGWGVAGTPSMMANQSKDTRRFSTLIVPGRSVNVHPSPTKEAIIWWQS”, for which the “soluble fraction (log2)” value was -0.138.
Consider “HMKPTVKKLLAALPELRSGQPLHLSVATRKLRDAGLLGKNASSPTLFRNYVAQFELIPENQPNAVRYR”, for which the “soluble fraction (log2)” value is 0.268.
As for “HMKPVSEMDNMEWVREQYFQNMIYEIGEWVKDKKTGIVGEIVKRGTNYVTIVQEDFSLHKIWLEDLETTE”, the “soluble fraction (log2)” value is -0.368.
In the case of “HMKQDYYSILGVMRDASQEEIKRAYLDAAQRLHPDRNTSAGDTEMFLDVQQAYEVLSNPKRRAQYDATLP”, the “soluble fraction (log2)” value was 0.169.
With “HMKQEFEMGLPNGVGEQMLAHAIEKFDVKLEHSEFGPKLIGTYEELEKAKVFLYEAIEARLNQLE”, the “soluble fraction (log2)” value was -0.875.
Turning to “HMKQISNTDELETMVKKIIDDNEEQVNKYRGGNEKLFGWFVGQAMKNTGGTANPKVVNEILSKLLK”, the “soluble fraction (log2)” value was ≥ 0.43.
In the case of “HMKQLLHLVIGGELKDVRGIEFEDLSKIDFVGAFPSYKAAYDAWKNAAQRTVDNAEMRYFILHAHR” it was -1.37; in that of “HMKQLRVLGIVKAGSILKNSDGSIEFVIEDSGKSLLVKYKGVIPDIFKDGVEAVVEGDLRGSVFNADKLF”, -0.2; in that of “HMKQMNETQQKAFEIYLDSATFETDYKPISEEQLAAKLDALGLKGSSSSINRWKKDFNWAQALQNKVTLAM”, -0.227.
In the case of “HMKQQNFADLAGRFVFNADNEVVFNFGKHKNVPVATVLKNEPGYYGWMMGGDFPLFTKKILKQIKEA” it was -0.952.
With “HMKQTFGAMLAALRKEKGMTQLELAEQMGVTDKAVSKWERDLSFPDVTSLPRLAEILEVSVDELMQ”, the “soluble fraction (log2)” value was -0.724.
As to “HMKQVNVVSVIGQSEANAKTTLTGLGLKVNVAYEEDTSKADGIVLKQSLEGGKTVNEGTTITITVNKIA”, the “soluble fraction (log2)” value is -0.567.
In the case of “HMKQVSDTGAIDAAIREVMDANPDKVAEYRSGKDKLFGFFVGQIMRAMAGKAAPVVVNDRLKALLD” it was 0.32.
In the case of “HMKQVTVGGTINAGGARIYADSYGNGGGRQTFGSDPIYTVLQERNGYILTRWHKLSSGYTGWFKKSDVSA” it was -0.00968; in that of “HMKQYSFEISKADFKKISENFNFKIINEINDSLIISLNDKNINLDELLIFFVERKIKVRSIENI”, -1.06; in that of “HMKREELTQQTKQNLREAFWSLYIQKPIEKITVKEITDIAGYNRGTFYLYYKDTYDLLAKIE”, -0.646.
Next, “HMKRLLLPGDLAGVRRHLLDRENSFHILRVLRLARGSTIEAMDDAGNRFSATLAGVKAGRALFDLAAKI”: -0.245; “HMKRLPAQMGGGDGVLRVPGLNNFVYVTIADKTLPAFNNRVPPKKGLRIWVGYSPEEPNLFQVLSTRTD”: 0.0233; “HMKRLPMRKIRDVLRLSADGLSTRKIGVSLTIGRTTVQAYLDRAAEVDLSWPLPPEMSDTDLERLIYPR”: -0.119.
Take “HMKRNLVSVLDHIVGIGPKRRQSLRTHFGSLEKIKEASVEELAAAPGMNRTSAEAVRHFFDAQQELRGK”: the “soluble fraction (log2)” value was 0.207.
“HMKRRSVIVSVVRAQVRQSADEAAAVVFEAEKNVSLDYLETMPGGWVKVRHRDGQTGFVRVNQIWG”: the “soluble fraction (log2)” value is -0.79.
Next, “HMKRSFGYIRLLPSKRYQASYIGPDSQRHAAPETFTRKMDAEGWLSAERRLIEWDQWTSPEQRAAQARLD”: 0.127.
Turning to “HMKRTRLEEAMDWLREQLNDGPVAYATLKDEAPKAEITLSTLRAAGEALRVDKQKKGVQWGGWTWSLPR”, the “soluble fraction (log2)” value turned out to be 0.404.
As to “HMKRVTRQRTEILRVIDESERPLGPQEILQAGREAIPSLSIATIYRTLRDLLAEELIKTVALPGDSPRYES”, the “soluble fraction (log2)” value was -0.0601.
Next, “HMKSARDDILSALDKAGEPLSMKDIAELSGRKLSTLRAQMTRLVAEGAVQATAAAHSPDRKYRK”: -0.133.
Regarding “HMKSARQIAILEIIAEKSIETQEDLADALRLRGFQVTQATVSRDIKELRLVKALAPDGTYRYATAEK”, the “soluble fraction (log2)” value was found to be 0.264.
For the sequence “HMKSEIRKKNSQIILDAAEHEFSVHGYRGTSVQMIADRSGLPKANLHYYYKSKSALYGAVLDRIL”, the “soluble fraction (log2)” value came to 0.109.
In the case of “HMKSERHALILSLIEKKNVETQEDLAELLKERGVAVTQATVSRDIKELRLIKVLSETGGYKYATVDKAE” it was 0.109.
Next, “HMKSIETVAELVAELKKLNPNAKISNIDGTYTLEEDINTITLPKDFKYDNNLGINNKIDDFTPYISLDVKA”: -0.132; “HMKSIRIPFILTEGPNSQKITIDIDSDEEFRIGDVFDEDDKLWSINQILISGDRKAKMAIASEVTSISALR”: -0.797; “HMKSKYLIKIEGDFDEKDLYKYLINVSIVNHTKNNGFTEVEFYNDNYSLQQNFLKSMLNDGIIITEFKKVE”: -0.558.
Turning to “HMKSLHSEVTDRIRQLIVESHLQPGQRVPELEISRDLGVSRTPIREALKVLAAEGLVELLPLRGAMVK”, the “soluble fraction (log2)” value is -0.104.
For “HMKSLLTARQLEVFEIARNKGYWTTPRKISLVELSKLLDISKSTLSVLLHSIEGKVMEEFYEEIRQ”, the “soluble fraction (log2)” value was 0.0209.
Turning to “HMKSNIIPLSLKKPQRLDIFLTNYFVDLSRTQIKKMITDGNIKVNDLIAKPSLKLIGDEIIFYTLPK”, the “soluble fraction (log2)” value was -0.698.
In the case of “HMKSNNPLDHVRVKQRGASWAYYFEKAKVDGKRRRGEGGGYATEQDARMAGVEAYNAYIGGGAK” it was 0.109; in that of “HMKSPVKLILRGSIYHIKISAVVNGQRIFVRESSHTTDKREAEQYANKRFAQLVEETEFRTN”, -0.907; in that of “HMKSQSIFNVKKGDTLSHIAVHVLKKNKQKVTPEAINKMVSNIAFRNKIKNPDLIFPGQKLVLEY”, -0.0458.
In the case of “HMKSQVVAYSDFVKAVNQKQINEVQIQGDKIRAINKAGEEITVTWLQNDQKLMDDLLDNNVKTIFLE” it was -0.282; in that of “HMKSSYSGNFKQNVVEYMHNNHLSATETANHFKLGGGSVVLRWERIYYEEGPQALYEERRGR”, 0.144.
Next, “HMKSYAQIAEILSGQQPNTSRKEGSNLAVHADWIDALIAKYGTALRPEEANEVVKKEIGIVFSHVLEN”: -1; “HMKSYQKITPATEGNYLTTYREGDDIKTYEGVKAMYTPADFDASSVREITPEEHQSYQKAKEQALQEETEQ”: 0.0912.
Regarding “HMKTALDEAKDFLNGALSKGHRPASDVVDEAKEASISEKTLKRAKLAIGIITRKEGFGSEGKWVWELPAR”, the “soluble fraction (log2)” value turned out to be 0.0771.
For the sequence “HMKTATAKIKATPFGWLRVRETPSLNGAEIARVNSGESYKILERGEGWIKIKVSDTVEGWVSEAYVELS”, the “soluble fraction (log2)” value is -0.236.
Next, “HMKTEKYIQVISGTVNVRSGPGTSYAEIAKIDASQIYVVTAKEGEWLKISLANGTIGYVAGWLVKEVTG”: -0.331; “HMKTEVNITPGIIDWIERYVQTDKISSSMTEDFQHWKSGTKKPTFNQVEAFSKAINVPLGYFFLKTPPAE”: -0.902; “HMKTFSFEILADTVKKQRKAKGMTQAELSEATGINRSMIGQMENMTFKPSIEQLEALSQALDFNVIDLYTE”: -0.767.
Consider “HMKTGHLPVTVIIDGRIISDNLYKTGLSNNWLADQLRKNSIKSSEDVFFAYLNPERKFIYQLRSNS”, for which the “soluble fraction (log2)” value was -0.098.
On to “HMKTGNIVMVNLGWKGKYYSIKMFFPQVSKPSRKDVQDQIEKIYPGGKLYTFVVSNYEPGEPMLHA”, for which the “soluble fraction (log2)” value was -0.164.
On to “HMKTITLDEAQEIALAEVDGKVTRAVEETDDGRSYYEFDIITNDQKHELEVDASSGKITKNEIDEDYVPS”, for which the “soluble fraction (log2)” value is -0.0471.
Next, “HMKTITVEDEQAGKRLDKALAELFPHYSRSALEKLIKEGQVLVNKSFVKSKYSLKLGDEISLQFEQL”: 0.0205.
In the case of “HMKTKILAPIPGSIMVVDVKVGDTVKVGDRLVQLEAMKMENNITSEKAGKITAVLVTAGQKVLQNEVMIEL” it was -0.52; in that of “HMKTLLSMNIKNLRKKKNMTLEELAEKVGTSKQTIQRYESGKISNIPSDKIELLAKYLDTTPAKLMGW”, 0.187; in that of “HMKTLNKRQQDIINLAREEGFVTVEHLSEYFKVTQQTIRRDLGYLSENLYLARTYGGAFFQS”, -0.535.
Next, “HMKTTKLEELDMQKEFILKNGKYGFGVYIGGKYIGLTDIGTVNSFKDSLQLPVVSLSDIDFKTFAEKF”: -1.34; “HMKTYEILFDILSRESDYISGEKLAQELGISRTSIWKAIQHLEKEGVHIESVKNKGYKLLSGDLLIAEKI”: -0.343.
As to “HMKTYGGDNSLHKFDEHHSWMVAKYGPVVKQTINGETKWLKVKKDLTLAQVKKMKLEDVLLPKSQT”, the “soluble fraction (log2)” value was 0.245.
With “HMKVDRLVSMILILLEQQRVGAQELADRFEVSVRTIYRDMEAINQAGIPVRSTSGVGGGFEIM”, the “soluble fraction (log2)” value was -0.314.
With “HMKVFREERLQLILEKLIHEKKVVVSDLVKYFNVSPSLIRMDLAELEKRDLILRTHGGAILPD”, the “soluble fraction (log2)” value was -0.0668.
In the case of “HMKVKEYKLVDWISTFTKNEGYGISQKAAMLLAEFLGDDLSRIANEIEKLKLLVEKGTTINDVHIEENI” it was -0.721.
In the case of “HMKVLFLESIEGSASMGEIKDVANGYARNFLFPNGFAVPATPKNLKNVEELQAKELEIQTERDNWAA” it was -0.713.

For the origin of these results see the domain aggregation screens of Martell et al. (2025).
